From patent US6429304 (University of California, dated 2002) come the findings set out here.

T1: native S. purpuratus katanin p80 subunit (sea urchin cytosol) (Strongylocentrotus purpuratus, UniProt O61585 1-690)
T1 construct: Endogenous protein of sea urchin eggs
T1 sequence: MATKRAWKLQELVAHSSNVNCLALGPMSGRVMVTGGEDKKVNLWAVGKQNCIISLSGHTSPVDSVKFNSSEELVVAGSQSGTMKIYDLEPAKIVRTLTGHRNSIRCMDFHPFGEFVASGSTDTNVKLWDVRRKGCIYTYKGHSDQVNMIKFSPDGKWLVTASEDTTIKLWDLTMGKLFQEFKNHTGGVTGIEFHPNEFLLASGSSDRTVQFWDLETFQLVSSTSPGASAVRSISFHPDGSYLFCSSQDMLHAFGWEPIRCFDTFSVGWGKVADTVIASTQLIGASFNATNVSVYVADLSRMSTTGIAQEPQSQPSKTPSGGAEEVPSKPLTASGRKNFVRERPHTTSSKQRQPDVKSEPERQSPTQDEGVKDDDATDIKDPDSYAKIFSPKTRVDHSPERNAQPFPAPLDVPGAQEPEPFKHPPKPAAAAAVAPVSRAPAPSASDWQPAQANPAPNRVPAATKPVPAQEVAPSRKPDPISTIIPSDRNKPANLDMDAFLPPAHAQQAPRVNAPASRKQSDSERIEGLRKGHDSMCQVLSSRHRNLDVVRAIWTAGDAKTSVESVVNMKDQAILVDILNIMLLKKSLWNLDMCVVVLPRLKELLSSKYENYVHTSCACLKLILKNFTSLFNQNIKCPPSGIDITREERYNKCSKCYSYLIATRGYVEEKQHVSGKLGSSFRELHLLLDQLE

B1: baculovirus-expressed S. purpuratus katanin p60 subunit with N-terminal His(6) tag (enzyme)
chain: HHHHHHMSVDEICENTKMGREYALLGNYETSLVYYQGVLQQIQKLLTSVHEPQRKHQWQTIRQELSQEYEHVKNITKTLNGFKSEPAAPEPAPNHRAAPFSHHQHAAKPAAAEPARDPDVWPPPTPVDHRPSPPYQRAARKDPPRRSEPSKPANRAPGNDRGGRGPSDRRGDARSGGGGRGGARGSDKDKNRGGKSDKDKKAPSGEEGDEKKFDPAGYDKDLVENLERDIVQRNPNVHWADIAGLTEAKRLLEEAVVLPLWMPDYFKGIRRPWKGVLMVGPPGTGKTMLAKAVATECGTTFFNVSSASLTSKYHGESEKLVRLLFEMARFYAPSTIFIDEIDSICSKRGTGSEHEASRRVKSELLIQMDGVSGPSAGEESSKMVMVLAATNFPWDIDEALRRRLEKRIYIPLPEIDGREQLLRINLKEVPLADDIDLKSIAEKMDGYSGADITNVCRDASMMAMRRRIQGLRPEEIRHIPKEELNQPSTPADFLLALQKVSKSVGKEDLVKYMAWMEEFGSV
notes: Expressed from pFastBac HT in Sf9 cells; also called p60 katanin; recombinant p60
B2: p80 delta 1-302 (S. purpuratus p80 katanin with the entire WD40 domain deleted), in vitro translated with N-terminal S-Tag (other)
chain: TTGIAQEPQSQPSKTPSGGAEEVPSKPLTASGRKNFVRERPHTTSSKQRQPDVKSEPERQSPTQDEGVKDDDATDIKDPDSYAKIFSPKTRVDHSPERNAQPFPAPLDVPGAQEPEPFKHPPKPAAAAAVAPVSRAPAPSASDWQPAQANPAPNRVPAATKPVPAQEVAPSRKPDPISTIIPSDRNKPANLDMDAFLPPAHAQQAPRVNAPASRKQSDSERIEGLRKGHDSMCQVLSSRHRNLDVVRAIWTAGDAKTSVESVVNMKDQAILVDILNIMLLKKSLWNLDMCVVVLPRLKELLSSKYENYVHTSCACLKLILKNFTSLFNQNIKCPPSGIDITREERYNKCSKCYSYLIATRGYVEEKQHVSGKLGSSFRELHLLLDQLE
notes: the residues kept are derived from the deletion named; also called truncated p80; delta 1-302 derivative of p80; not shown: 37 amino acid N-terminal S-Tag from pCITE-4a+ (Novagen)
B3: native S. purpuratus katanin p60 subunit (unfertilized egg extract / cytosol) (enzyme)
chain: MSVDEICENTKMGREYALLGNYETSLVYYQGVLQQIQKLLTSVHEPQRKHQWQTIRQELSQEYEHVKNITKTLNGFKSEPAAPEPAPNHRAAPFSHHQHAAKPAAAEPARDPDVWPPPTPVDHRPSPPYQRAARKDPPRRSEPSKPANRAPGNDRGGRGPSDRRGDARSGGGGRGGARGSDKDKNRGGKSDKDKKAPSGEEGDEKKFDPAGYDKDLVENLERDIVQRNPNVHWADIAGLTEAKRLLEEAVVLPLWMPDYFKGIRRPWKGVLMVGPPGTGKTMLAKAVATECGTTFFNVSSASLTSKYHGESEKLVRLLFEMARFYAPSTIFIDEIDSICSKRGTGSEHEASRRVKSELLIQMDGVSGPSAGEESSKMVMVLAATNFPWDIDEALRRRLEKRIYIPLPEIDGREQLLRINLKEVPLADDIDLKSIAEKMDGYSGADITNVCRDASMMAMRRRIQGLRPEEIRHIPKEELNQPSTPADFLLALQKVSKSVGKEDLVKYMAWMEEFGSV
notes: Endogenous protein of sea urchin eggs; also called 60 kDa polypeptide
B4: p80 delta 303-690 (C-terminal truncation of S. purpuratus p80 katanin containing only the WD40 domain), in vitro translated with N-terminal S-Tag (other)
chain: MATKRAWKLQELVAHSSNVNCLALGPMSGRVMVTGGEDKKVNLWAVGKQNCIISLSGHTSPVDSVKFNSSEELVVAGSQSGTMKIYDLEPAKIVRTLTGHRNSIRCMDFHPFGEFVASGSTDTNVKLWDVRRKGCIYTYKGHSDQVNMIKFSPDGKWLVTASEDTTIKLWDLTMGKLFQEFKNHTGGVTGIEFHPNEFLLASGSSDRTVQFWDLETFQLVSSTSPGASAVRSISFHPDGSYLFCSSQDMLHAFGWEPIRCFDTFSVGWGKVADTVIASTQLIGASFNATNVSVYVADLSRMS
notes: the residues kept are derived from the deletion named; also called delta 303-690 derivative of p80; not shown: 37 amino acid N-terminal S-Tag from pCITE-4a+ (Novagen)
B5: baculovirus-expressed S. purpuratus katanin p80 subunit with N-terminal His(6) tag (other)
chain: HHHHHHMATKRAWKLQELVAHSSNVNCLALGPMSGRVMVTGGEDKKVNLWAVGKQNCIISLSGHTSPVDSVKFNSSEELVVAGSQSGTMKIYDLEPAKIVRTLTGHRNSIRCMDFHPFGEFVASGSTDTNVKLWDVRRKGCIYTYKGHSDQVNMIKFSPDGKWLVTASEDTTIKLWDLTMGKLFQEFKNHTGGVTGIEFHPNEFLLASGSSDRTVQFWDLETFQLVSSTSPGASAVRSISFHPDGSYLFCSSQDMLHAFGWEPIRCFDTFSVGWGKVADTVIASTQLIGASFNATNVSVYVADLSRMSTTGIAQEPQSQPSKTPSGGAEEVPSKPLTASGRKNFVRERPHTTSSKQRQPDVKSEPERQSPTQDEGVKDDDATDIKDPDSYAKIFSPKTRVDHSPERNAQPFPAPLDVPGAQEPEPFKHPPKPAAAAAVAPVSRAPAPSASDWQPAQANPAPNRVPAATKPVPAQEVAPSRKPDPISTIIPSDRNKPANLDMDAFLPPAHAQQAPRVNAPASRKQSDSERIEGLRKGHDSMCQVLSSRHRNLDVVRAIWTAGDAKTSVESVVNMKDQAILVDILNIMLLKKSLWNLDMCVVVLPRLKELLSSKYENYVHTSCACLKLILKNFTSLFNQNIKCPPSGIDITREERYNKCSKCYSYLIATRGYVEEKQHVSGKLGSSFRELHLLLDQLE
notes: Expressed from pFastBac HT in Sf9 cells; also called p80 katanin; recombinant p80

The target of data set [1] is B5. The data set is described as follows: co-immunoprecipitation from insect cells coinfected with p60 and p80 baculoviruses. Here is the method: Proteins bound to the resin were analyzed by SDS-PAGE followed by staining with Coomassie.
The immunoprecipitations were incubated at 4° C. for 1–2 hr, washed five times with 1 ml of ice-cold TBST, and eluted in SDS-containing sample buffer.

Data set [2] concerns the molecule itself. The data set is described as follows: rotary-shadowing electron microscopy of recombinant p60 on mica. Here is the method:
Proteins were adsorbed to mica, freeze-dried, and platinum replicated according to established procedures (Heuser (1989) *J. Electron Microsc. Technique* 13):, 244–263; Heuser (1983) *J. Mol. Biol.* 169: 155–195). Sample preparation and imaging were similar to that used in the imaging of NSF (Hanson et al. (1997) *Cell* 90: 523–535), except that mica flakes were washed with a buffer consisting of 10 mM K-HEPES (pH 7.5), 2 mM MgCl_2, 1 mM nucleotide (ATP or ATP-γ-S).

The target of data set [3] is T2, in vitro translated S. purpuratus p60 katanin with 37 amino acid N-terminal S-Tag (Strongylocentrotus purpuratus, UniProt O61577 1-516).
T2 construct: Made in a rabbit reticulocyte coupled transcription-translation reaction; not shown: 37 amino acid N-terminal S-Tag from pCITE-4a+ (Novagen)
Kind of data set: co-translation in rabbit reticulocyte lysate, co-immunoprecipitation with anti-p60 antibody. As to the method:
(§1) In vitro synthesis of proteins directly from plasmid DNAs was accomplished using the Single Tube Protein System 2, T7 (Novagen). […] For immunoprecipitations, lysates were incubated on ice with Pansorbin (Calbiochem)-antibody complexes, washed in NET buffer (50 mM Tris-Cl (pH 7.5), 150 mM NaCl, 0.1% Nonidet P40, 1 mM EDTA (pH 8.0), 0.25% gelatin and 0.02% sodium azide), then resuspended in SDS-PAGE sample buffer. In vitro translation products in both the pellets and supernatants from the immunoprecipitations were resolved by SDS-PAGE, transferred to nitrocellulose, probed with S-protein HRP conjugate (Novagen) and detected by chemiluminescence.

In data set [4] the target is T1, native S. purpuratus katanin p80 …. The data set is described as follows: immunoprecipitation from sea urchin cytosol.
In data set [5] the target is T2, in vitro translated S. purpuratus p60 …. The data set is described as follows: co-translation in rabbit reticulocyte lysate, immunoprecipitation with anti-p60 antibody. As to the method:
as §1

For data set [6], the target named is B1. The data set is described as follows: baculovirus co-expression, metal affinity purification, Coomassie staining. From the text: We therefore sought to express the two subunits together and separately and then test their enzymatic activities.

Turning to B1, the binding result in data set [1] and in data set [2] was “binds” in each case.

In the case of B2, the binding result in data set [3] is reported as “binds”.

With B3, the binding result in data set [4] was “binds”.

With B4, the binding result in data set [5] is given as “no binding”.

On to B5, for which the “p60:p80 molar ratio in the purified co-expressed protein” value in data set [6] was around 0.9 mol p80 per mol p60.
